Results on 167 variants are retold here after the RNAGym collection of RNA variant scans (doi:10.1073/pnas.2313332121).

The chains are these.
B1: TPR t1 (parent)
chain: GACCAAUCUGCCCUCAGAGCUCGAGAACAUCUUCGGAUGCAGAGGAGGCAGGCUUCGGUGGCGCGAUAGCGCCAACGUCCUCAACCUCCAAUGCAUCCCACCACAUGAUGAUGCCUGAAGAGCCUUGGUUUUUUG

In the data set the parent is B1. As to the kind of experiment: polymerase ribozyme fitness, log enrichment relative to wild type (log ratio); higher = more active; in vitro selection for triplet polymerase activity. In a few lines:
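Streptavidin-bead capture of gel-excised extended constructs, followed by RT-PCR, closed a single triplicate in vitro selection round. That round began by annealing PCR-built, transcribed mutant libraries of each subunit of a heterodimeric triplet polymerase ribozyme with a biotinylated primer, the partner subunit and triplets, then incubating them frozen at −7 °C. After Illumina sequencing of inputs and outputs, genotypes needed ≥10 input reads and ≥1 read per output. Fitness is the base-2 logarithm of genotype enrichment over wild-type enrichment, using inverse-variance-weighted replicate averages.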
As to C22A G61U C115U G128C U131A U134C, the “polymerase ribozyme fitness (log ratio)” value is -5.61.
Turning to C20U G122A, the “polymerase ribozyme fitness (log ratio)” value was -2.04.
U21A G45U G63A G113C: the “polymerase ribozyme fitness (log ratio)” value is -6.02.
The value for C20U G35A G61A A111C was -5.53; that for U21A C102G G113U A118U U129G was -6.08; that for U21C U38G C49A G120U U130G U131G was -4.41.
For C22A A27C C124A the value was -4.12; for C20U G42A G71U C80U C82A U112C, -2.53; for C20U G93A C101G G113C, -4.09.
U21C A24G A26G C53G G60U: the “polymerase ribozyme fitness (log ratio)” value was -5.16.
For the variant U21A A91U, the “polymerase ribozyme fitness (log ratio)” value was -2.43.
For C22A C64U C114G G135U the value was -5.66; for C20U U116G, -4.59.
The value for U21G A46C C86U was -2.16; that for U21A A41U G60A U96A was -4.01; that for C20U C62A G93A U129A was -4.93.
For C22A G44C U112A the value was -3.24.
For the variant U21C C49A A84U C88G C101G U133A, the “polymerase ribozyme fitness (log ratio)” value is -2.
The value for U21A A50G A95G A105C was -3.34; that for U21C A29G A37U G71U was -1.56; that for C20U G63C A84C A105U was -4.52.
The value for U21A C22A A27C C89U C114U A121U was -3.32; that for C20U G35C G60U was -5.9; that for C20U U78A C85U was -2.54.
For U21A G42A A46U G60A, the “polymerase ribozyme fitness (log ratio)” value was -4.47.
For U21G G52A C102A C124U the value was -2.14; for U21C G52C G61A C82A, -0.816.
With U21C C88G A121U, the “polymerase ribozyme fitness (log ratio)” value was -0.0258.
Consider C20U G52U C72U, for which the “polymerase ribozyme fitness (log ratio)” value is -3.02.
The value for U21A U112A was 1.06; that for U21A U38G U54C U59A was -1.06; that for C22A G60A U96A U130C was -4.99.
For U21C A46G C53A C98U the value was -3.28; for C20U U55G G69U C99A, -3.12; for C20U C62G C101U G110C, -6.8.
For C20U G77A A84U U112G the value was -2.88; for U21G A46G G48U A100C C102A, -5.54; for C20U G61C, -2.87.
As to C20U G61A, the “polymerase ribozyme fitness (log ratio)” value was -1.13.
For C20U C72A C102U U109A C114A U133G the value was -5.73; for C22A C73U, -5.07.
The value for C22A C73G was -4.45; that for U21A C88G was -0.967; that for U21C C72U was -0.489.
Take U21A C56U C62U C85G: the “polymerase ribozyme fitness (log ratio)” value was -3.76.
The value for C22A G42A C73A was -7.34; that for C20U G52C U78A C102U C124U was -2.94; that for C20U C56U was -1.64.
The value for C20U C70U C88A U106C was -2.34.
In the case of C20U G44A C64U, the “polymerase ribozyme fitness (log ratio)” value was -2.89.
As to C20U G60U G110A, the “polymerase ribozyme fitness (log ratio)” value was -3.8.
For C20U G93A the value was -1.32; for C22A C72U, -4.98; for C22A C72G, -4.59.
For U21C G45A U59A G61A the value was -1.1.
The value for U21C G48U U112C A118U was 1.11.
On to U21A C28U A37G G61U, for which the “polymerase ribozyme fitness (log ratio)” value is -4.5.
Take U21G G47A: the “polymerase ribozyme fitness (log ratio)” value was -0.934.
For U21A G60A C86U the value was -1.23.
C22A A26G A83U: the “polymerase ribozyme fitness (log ratio)” value was -3.1.
For C20U G117A the value was -2.72.
The value for C22A G60A was -4.26; that for C22A G60U was -4.21; that for U21G A105U G120A was -2.92.
For C20U C72U the value was -1.9; for C22A A46C U131A, -4.88; for C22A G61A U129G, -5.57.
For U21A G23A C76G G113U, the “polymerase ribozyme fitness (log ratio)” value was -7.66.
For U21A G42U G63C C82A the value was -3.34.
The value for U21C A95G was -0.566; that for U21C U78A A91U was -1.45; that for C20U G45U A100U was -3.67.
For U21A A43U the value was -1.83; for C20U C101U, -1.97.
Take U21C G45C C56U U109A A111U C124G: the “polymerase ribozyme fitness (log ratio)” value is -4.35.
For U21C U54A G93A A111C the value was -0.948; for C20U G25C C64A C70U C98G A111U, -6.27; for C22A C31G C62U C94A G110C, -6.66.
The value for C22A C49G G69U C85U was -2.28.
For C20U G61C G93C the value was -3.53; for U21A C80U, -0.894; for C22A A111C, -4.49.
As for C22A G25C G45C G48U U59A C115U, the “polymerase ribozyme fitness (log ratio)” value was -6.59.
As for U21C A37G A46C C64G A100C C115U G117C, the “polymerase ribozyme fitness (log ratio)” value is -7.24.
Turning to C20U G44A G45U, the “polymerase ribozyme fitness (log ratio)” value was -3.42.
For U21A C70A C86U A111C, the “polymerase ribozyme fitness (log ratio)” value was -5.59.
The value for C22A C70G A111C G113C was -6.22; that for U21C C22G G63A G77U C94A G110C U112C was -7.86; that for C20U C102A was -3.26.
The value for C20U C102U was -2.92.
U21A C49U: the “polymerase ribozyme fitness (log ratio)” value was -1.1.
The value for C22A G60C U87A was -5.83.
For U21A G69U the value was 0.577.
For C20U G48A C53U C99U the value was -5.43; for C20U C56U G93A C114G U129G, -2.17.
Take C20U G48U A91C C94G: the “polymerase ribozyme fitness (log ratio)” value is -4.07.
For C20U C85U A100U the value was -3.48; for U21A A43C G63C, -4.13; for U21A A43U C72U U129A, -3.56.
For U21A A41U C70U A95U the value was -4.21; for C20U G47C A75U A91U, -4.77.
For the variant U21A G42C U59C U130G, the “polymerase ribozyme fitness (log ratio)” value was -2.41.
The value for C20U C70G was -3.54; that for C20U C70A was -3.13.
Regarding C20U C62U, the “polymerase ribozyme fitness (log ratio)” value was -1.15.
The value for C20U C62G was -3.42; that for U21A C89U G110A U112C was -2.24; that for C22A G44U C62U U112G was -5.2.
The value for C22A C70A G122U was -5.4; that for U21A A29G A43U C56G A83C A91C G120U was -5.54.
As for C20U C86A, the “polymerase ribozyme fitness (log ratio)” value was -2.3.
The value for U21A G35U A74U A111U was -6.43.
Consider C20U C64A C98A G117U, for which the “polymerase ribozyme fitness (log ratio)” value was -6.4.
For U21A A95G G117U the value was -1.3.
The value for C20U U54A was -0.906.
The value for U21G G71U was -2.37; that for U21C C72U G93A U96G was -2.4.
Regarding C20U C76G C89U C104A C115U, the “polymerase ribozyme fitness (log ratio)” value is -5.63.
The value for U21A C34A A37G C98G was -2.68; that for U21C G120U was -0.0201.
For C20U G60C C99U the value was -4.59; for C20U G57C C104A, -2.45; for U21A U38G C56A U78C, -1.08.
The value for C20U G60C was -1.73.
Take C22A A66C G69U G93C: the “polymerase ribozyme fitness (log ratio)” value is -5.35.
As to C22A A37G U81A A121C, the “polymerase ribozyme fitness (log ratio)” value is -6.04.
The value for C22A G61A A66C was -5.28; that for U21C G63C G120A was -0.168; that for C22A C56A U112C was -2.01.
For the variant U21C C62U A83U U87G, the “polymerase ribozyme fitness (log ratio)” value stood at 0.103.
As for C22A C82G U112G, the “polymerase ribozyme fitness (log ratio)” value was -5.26.
The value for U21A C56U G57C was -0.599.
U21A U59C C123A G128C: the “polymerase ribozyme fitness (log ratio)” value was -2.93.
As to C20U C85U, the “polymerase ribozyme fitness (log ratio)” value was -2.85.
As to C20U C115U, the “polymerase ribozyme fitness (log ratio)” value was -1.73.
The value for U21A C89G was -2.25; that for C22A A27G G60C A83G was -6.08.
For U21A G44U C97U G113A the value was -2.33.
As for C20U U32G C73G C97U C123U, the “polymerase ribozyme fitness (log ratio)” value was -5.73.
The value for U21C G35A U130A was -4.76; that for U21G C88A was -1.66.
The value for U21A A24G was -1.64; that for U21G C72G was -1.39; that for U21C G71A C101U G117A was -2.85.
For U21A U54C G61A A111G C123U the value was -5.38.
For the variant U21A A90C, the “polymerase ribozyme fitness (log ratio)” value is -1.58.
For U21G C40U U87G the value was -1.55; for C22A C115G, -3.77.
As to C22A C115U, the “polymerase ribozyme fitness (log ratio)” value is -6.25.
The value for C22A C115A was -4.55; that for U21G G51U G69C A103U A111U G122U was -7.01; that for U21G C34A C49U C102G C114A was -8.62.
For U21C A26G the value was -2.38; for C20U G63U A118G U132A, -2.9.
The value for U21A A24G G36U G61C G120U U132A was -3.58; that for C20U G120U was -1.57.
On to C22A G36U C88U C115A, for which the “polymerase ribozyme fitness (log ratio)” value was -5.17.
In the case of U21G C123G U126G, the “polymerase ribozyme fitness (log ratio)” value is 0.0716.
Consider C20U C80U C82G C85G, for which the “polymerase ribozyme fitness (log ratio)” value is -3.74.
The value for C20U U112A G120A was -0.897; that for U21G A95C was -2.54.
The value for C22A A119G was -3.88; that for U21C G48U C53A G117A was -1.81; that for C22A G52A C124U was -4.37.
The value for U21A A50C A68G was -6.32.
On to U21G G39C A41G C115A, for which the “polymerase ribozyme fitness (log ratio)” value was -2.
The value for U21A A27U U92A was -7.38.
